Test results reported in article PMC8748511 (2022).

Target: SARS-CoV-2 spike receptor binding domain (RBD) (SARS-CoV-2, UniProt P0DTC2)
Test: SPR

B1: Fu2 (VHH)
VHH: QVQLVESGGGLVQPGGSLRLSCAASGFTLDDYAIGWFRQAPGKEREGVSFITSSDGSTYYVDSVKGRFTISRDNAKNTVYLQMNSLTPEDTAIYYCAVGPSFSYTGSTYYRSELPWDYDYWGQGTQVTVSS
  Kd: 118 pM
